Test results from patent publication US20130136748A1 (Ablynx, published 2013).
Read-outs that look alike come from different tables or passages of the source. Blank lines part the entries; values can stand above or below the molecule they belong to.

Legend:
[1] = biological target: T1, human HER2 (human, UniProt P04626 23-1255); assay: FACS CHO-HER2, 5 µg/ml
T1 construct: also called hHER2

[2] = biological target: human HER4 (human, UniProt Q15303 26-1308); assay: FACS CHO-HER4, 5 µg/ml
[3] = biological target: T2, human HER1 (human, UniProt P00533 25-1210); assay: FACS CHO-HER1, 5 µg/ml
T2 construct: also called EGFR; ErbB1

[4] = biological target: T3, human HER3-Fc (R&D Systems, 348-RB) (human, UniProt P21860 20-643); assay: HRG competition alphascreen
T3 construct: Bought; also called hHER3-Fc; Fc-HER3; Fc part of the bought chimera not given, not described

[5] = biological target: T3, human HER3-Fc (R&D Systems, 348-RB); assay: HRG competition alphascreen; remark: listed apart in the source
[6] = biological target: T3, human HER3-Fc (R&D Systems, 348-RB); assay: HRG competition alphascreen; remark: listed apart in the source
[7] = biological target: T4, hHER3 full length (human, UniProt P21860 20-1342); assay: cell-based or functional assay
[8] = biological target: T4, hHER3 full length; assay: cell-based or functional assay; remark: listed apart in the source
[9] = biological target: T3, human HER3-Fc (R&D Systems, 348-RB); assay: HRG competition alphascreen; remark: listed apart in the source
[10] = biological target: T5, hHER3 ECD (human HER3 extracellular domain) (human, UniProt P21860 20-643); assay: SPR off rate on HER3-ECD
T5 construct: also called recombinant HER3-ECD

[11] = biological target: T3, human HER3-Fc (R&D Systems, 348-RB); assay: 34C07 competition alphascreen
[12] = biological target: T4, hHER3 full length; assay: cell-based or functional assay; remark: listed apart in the source
[13] = biological target: T5, hHER3 ECD (human HER3 extracellular …); assay: SPR off rate on HER3-ECD; remark: listed apart in the source

Sequence of human HER4 (Q15303 26-1308 limits assumed): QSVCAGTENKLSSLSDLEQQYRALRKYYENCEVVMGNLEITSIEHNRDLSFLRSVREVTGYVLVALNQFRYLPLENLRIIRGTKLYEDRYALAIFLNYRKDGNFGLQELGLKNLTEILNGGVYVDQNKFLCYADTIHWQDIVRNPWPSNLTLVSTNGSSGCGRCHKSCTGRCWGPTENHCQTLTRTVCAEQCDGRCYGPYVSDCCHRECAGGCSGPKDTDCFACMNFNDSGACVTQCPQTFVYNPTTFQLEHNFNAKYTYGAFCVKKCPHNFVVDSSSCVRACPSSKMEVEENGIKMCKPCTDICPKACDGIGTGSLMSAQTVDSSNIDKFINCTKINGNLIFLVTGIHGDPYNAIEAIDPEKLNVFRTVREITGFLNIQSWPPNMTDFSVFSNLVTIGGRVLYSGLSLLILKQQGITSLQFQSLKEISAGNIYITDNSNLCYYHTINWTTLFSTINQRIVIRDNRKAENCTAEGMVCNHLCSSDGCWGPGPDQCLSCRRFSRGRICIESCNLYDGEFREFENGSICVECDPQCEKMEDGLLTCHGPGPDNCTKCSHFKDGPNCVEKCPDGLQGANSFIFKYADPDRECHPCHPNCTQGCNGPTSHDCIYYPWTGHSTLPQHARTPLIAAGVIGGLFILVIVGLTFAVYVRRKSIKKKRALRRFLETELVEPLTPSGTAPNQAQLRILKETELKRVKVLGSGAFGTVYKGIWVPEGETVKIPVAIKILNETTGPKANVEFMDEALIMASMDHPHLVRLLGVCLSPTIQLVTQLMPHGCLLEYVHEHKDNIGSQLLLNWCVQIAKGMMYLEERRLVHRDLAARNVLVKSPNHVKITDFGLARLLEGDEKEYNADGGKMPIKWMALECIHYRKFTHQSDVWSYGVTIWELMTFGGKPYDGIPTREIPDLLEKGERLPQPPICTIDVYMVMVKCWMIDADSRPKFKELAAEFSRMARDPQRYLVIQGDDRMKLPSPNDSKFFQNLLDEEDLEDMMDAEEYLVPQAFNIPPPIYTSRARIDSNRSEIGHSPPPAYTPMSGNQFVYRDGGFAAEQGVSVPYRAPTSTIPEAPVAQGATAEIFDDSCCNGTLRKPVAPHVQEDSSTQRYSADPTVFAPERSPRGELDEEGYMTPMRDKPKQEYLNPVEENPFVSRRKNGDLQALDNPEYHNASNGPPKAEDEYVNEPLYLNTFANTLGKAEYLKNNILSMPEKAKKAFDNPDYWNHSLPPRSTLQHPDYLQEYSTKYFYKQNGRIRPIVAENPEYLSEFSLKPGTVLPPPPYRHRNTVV

Molecule: Anti-HER1 pAb (R&D Systems AF231) (antibody)
- MCF [1]: 888
- MCF [2]: 418
- MCF [3]: 28200

Molecule: Anti-HER4 pAb (R&D Systems AF1131) (antibody)
- MCF [1]: 932
- MCF [2]: 17000
- MCF [3]: 584

Molecule: Anti-HER2 pAb (R&D Systems AF1129) (antibody)
- MCF [1]: 41000
- MCF [2]: 578
- MCF [3]: 323

B1: HER3MS00046 (VHH)
VHH: EVQLVESGGGLVQPGGSLRLSCAASGRTYYLNAMGWFRQGPGKDREFVAAIDWSDGNKDYADSVKGRFTISRDNSKNTVYLQMNSLRPEDTAVYYCAADTPPWGPMIYIESYDSWGQGTLVTVSS
notes: 21F06 + A14P, A74S, K83R, Q108L; also called HER3MS0046; 21F06 basic variant
- IC50 [4]: 0.28 nM

B2: HER3MS00048 (VHH)
VHH: EVQLVESGGGLVQPGGSLRLSCAASGRTYYLNAMGWFRQGPGKEREFVAAIDWSDGNKDYADSVKGRFTISRDNSKNTVYLQMNSLRPEDTAVYYCAADTPPWGPMIYIESYDSWGQGTLVTVSS
notes: 21F06 basic + D44E; also called HER3MS0048
- IC50 [4]: 0.27 nM

B3: HER3MS00047 (VHH)
VHH: EVQLVESGGGLVQPGGSLRLSCAASGRTYYLNAMGWFRQAPGKDREFVAAIDWSDGNKDYADSVKGRFTISRDNSKNTVYLQMNSLRPEDTAVYYCAADTPPWGPMIYIESYDSWGQGTLVTVSS
notes: 21F06 basic + G40A; also called HER3MS0047
- IC50 [4]: 0.21 nM

B4: HER3MS00042 (VHH)
VHH: EVQLVESGGGLVQPGGSLRLSCAASGFTFSSYPMSWVRQAPGKGPAWVSTVSPGGITTSYADSVKGRFTISRDNSKNTLYLQMNSLRPEDTAVYYCLRDLNNRGQGTLVTVSS
notes: 04C07 + A14P, A74S, K83R, Q108L; also called HER3MS0042; 04C07 basic variant
- IC50 [5]: 0.31 nM
- IC50 [6]: 0.31 nM
- IC50 pHER3, HRG1-β1 stimulated MCF7 [7]: 6.81e-09 M

B5: HER3MS00118 (VHH)
VHH: EVQLVESGGGLVQPGGSLRLSCAASGSIGGLNAMAWYRQAPGKERELVAGIFGVGSTRYADSVKGRFTISRDNSKNTVYLQMNSLRAEDTAVYYCRMSSVTRGSSDYWGQGTLVTVSS
notes: 17B05 second round, S84A; also called HER3MS0118
- IC50 pHER3 blocking, HRG stimulated MCF7 [8]: 2.69e-09 M
- IC50 [9]: 0.6 nM
- koff [10]: 0.00018 s⁻¹

B8: HER3MS00119 (VHH)
VHH: EVQLVESGGGLVQPGGSLRLSCAASGSIGGLNAMAWYRQAPGKERELVAGIFGVGSTRYADSVKGRFTISRDNSKNTVYLQMNSLRPEDTAVYYCRMSSVTRGSSDYWGQGTLVTVSS
notes: 17B05 second round, S84P (final variant); also called HER3MS0119
- IC50 pHER3 blocking, HRG stimulated MCF7 [8]: 1.7e-09 M
- IC50 [9]: 0.79 nM
- koff [10]: 0.00018 s⁻¹

B9: HER3MS00123 (VHH)
VHH: EVQLVESGGGLVQPGGSLRLSCAASGSIFRINAMAWYRQAPGKQRELVAEITAGGSTNYADSVKGRFTISRDNSWNTLYLQMNSLRPEDTAVYYCNLDHYTTWDRRSAYWGQGTLVTVSS
- IC50 [11]: 7.6 nM
- IC50 pHER3 blocking, MCF7 [12]: 3.09e-08 M
- koff [13]: 0.00046 s⁻¹

The remaining lines, values ahead:

- IC50 pHER3 blocking, HRG stimulated MCF7 [8]: 3.53e-09 M
- IC50 [9]: 0.55 nM
- koff [10]: 0.00018 s⁻¹
B6: HER3MS00121 (VHH)
VHH: DVQLVESGGGLVQPGGSLRLSCAASGSIGGLNAMAWYRQAPGKERELVAGIFGVGSTRYADSVKGRFTISRDNSKNTVYLQMNSLRPEDTAVYYCRMSSVTRGSSDYWGQGTLVTVSS
notes: 17B05 second round, E1D, S84P (final variant for N-terminal use); also called HER3MS0121

- IC50 pHER3 blocking, HRG stimulated MCF7 [8]: 4.28e-09 M
- IC50 [9]: 0.75 nM
- koff [10]: 0.00019 s⁻¹
B7: HER3MS00120 (VHH)
VHH: DVQLVESGGGLVQPGGSLRLSCAASGSIGGLNAMAWYRQAPGKERELVAGIFGVGSTRYADSVKGRFTISRDNSKNTVYLQMNSLRAEDTAVYYCRMSSVTRGSSDYWGQGTLVTVSS
notes: 17B05 second round, E1D, S84A; also called HER3MS0120

- IC50 [11]: 7.1 nM
- IC50 pHER3 blocking, MCF7 [12]: 3.05e-08 M
- koff [13]: 0.00045 s⁻¹
B10: HER3MS00124 (VHH)
VHH: EVQLVESGGGLVQPGGSLRLSCAASGSIFRINAMAWYRQAPGKQRELVAEITAGGSTNYADSVKGRFTISRDNSWNTLYLQMNSLRAEDTAVYYCNLDHYTTWDRRSAYWGQGTLVTVSS

- IC50 [11]: 6.7 nM
- IC50 pHER3 blocking, MCF7 [12]: 4.05e-08 M
- koff [13]: 0.00046 s⁻¹
B11: HER3MS00128 (VHH)
VHH: DVQLVESGGGLVQPGGSLRLSCAASGSIFRINAMAWYRQAPGKQRELVAEITAGGSTNYADSVKGRFTISRDNSWNTLYLQMNSLRAEDTAVYYCNLDHYTTWDRRSAYWGQGTLVTVSS

- IC50 [11]: 8.5 nM
- IC50 pHER3 blocking, MCF7 [12]: 3.88e-08 M
- koff [13]: 0.00046 s⁻¹
B12: HER3MS00127 (VHH)
VHH: DVQLVESGGGLVQPGGSLRLSCAASGSIFRINAMAWYRQAPGKQRELVAEITAGGSTNYADSVKGRFTISRDNSWNTLYLQMNSLRPEDTAVYYCNLDHYTTWDRRSAYWGQGTLVTVSS
